Measurements: patent US20090214537A1 (Novartis, published 2009)

Legend:
[1] = target: putative BibA receptor on human epithelial cells (ME180, A549, Caco2, 16HBE); test: flow cytometry saturation curve on ME180 cells, BibA concentration at 50% saturation (FIG. 22B)
[2] = target: putative BibA receptor on human epithelial cells (ME180, A549, Caco2, 16HBE); test: flow cytometry, recombinant BibA on ME180 cells, anti-BibA serum and PE-conjugated secondary antibody
[3] = target: T1, human C4b-binding protein (C4BP) purified from citrated human plasma (human, UniProt P04003 49-597; P20851 18-252); test: overlay blot of the SDS-PAGE separated constructs with C4bp (FIG. 21C)
T1 construct: also called human plasma C4BP; human complement regulator C4 bp
T1 sequence 1: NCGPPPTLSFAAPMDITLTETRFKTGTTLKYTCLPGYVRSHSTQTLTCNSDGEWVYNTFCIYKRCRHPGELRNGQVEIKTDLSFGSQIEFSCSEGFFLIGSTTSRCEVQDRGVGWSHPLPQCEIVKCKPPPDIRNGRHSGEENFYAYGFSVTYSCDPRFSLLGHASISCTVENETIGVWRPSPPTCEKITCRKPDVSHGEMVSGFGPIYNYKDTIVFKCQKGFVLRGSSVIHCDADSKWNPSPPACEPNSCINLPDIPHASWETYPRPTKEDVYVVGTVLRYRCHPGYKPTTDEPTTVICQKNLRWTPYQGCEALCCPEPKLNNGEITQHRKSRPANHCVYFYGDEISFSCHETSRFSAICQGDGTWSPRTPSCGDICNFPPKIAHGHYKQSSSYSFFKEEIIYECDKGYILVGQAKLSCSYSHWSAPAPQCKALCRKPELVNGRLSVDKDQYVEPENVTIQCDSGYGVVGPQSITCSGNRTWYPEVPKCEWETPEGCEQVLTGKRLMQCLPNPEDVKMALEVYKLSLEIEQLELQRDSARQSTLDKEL
T1 sequence 2: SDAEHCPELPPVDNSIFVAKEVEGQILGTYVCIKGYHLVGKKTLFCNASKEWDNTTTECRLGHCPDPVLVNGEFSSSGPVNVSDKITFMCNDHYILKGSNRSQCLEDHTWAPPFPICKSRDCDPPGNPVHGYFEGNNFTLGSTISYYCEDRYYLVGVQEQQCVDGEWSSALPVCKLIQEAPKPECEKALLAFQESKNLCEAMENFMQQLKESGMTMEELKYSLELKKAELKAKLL

[4] = target: T2, Factor H (alternative complement pathway regulator) (UniProt P08603 19-1231); test: overlay blot (format not detailed)
T2 construct: also called FH
T2 sequence (P08603 19-1231): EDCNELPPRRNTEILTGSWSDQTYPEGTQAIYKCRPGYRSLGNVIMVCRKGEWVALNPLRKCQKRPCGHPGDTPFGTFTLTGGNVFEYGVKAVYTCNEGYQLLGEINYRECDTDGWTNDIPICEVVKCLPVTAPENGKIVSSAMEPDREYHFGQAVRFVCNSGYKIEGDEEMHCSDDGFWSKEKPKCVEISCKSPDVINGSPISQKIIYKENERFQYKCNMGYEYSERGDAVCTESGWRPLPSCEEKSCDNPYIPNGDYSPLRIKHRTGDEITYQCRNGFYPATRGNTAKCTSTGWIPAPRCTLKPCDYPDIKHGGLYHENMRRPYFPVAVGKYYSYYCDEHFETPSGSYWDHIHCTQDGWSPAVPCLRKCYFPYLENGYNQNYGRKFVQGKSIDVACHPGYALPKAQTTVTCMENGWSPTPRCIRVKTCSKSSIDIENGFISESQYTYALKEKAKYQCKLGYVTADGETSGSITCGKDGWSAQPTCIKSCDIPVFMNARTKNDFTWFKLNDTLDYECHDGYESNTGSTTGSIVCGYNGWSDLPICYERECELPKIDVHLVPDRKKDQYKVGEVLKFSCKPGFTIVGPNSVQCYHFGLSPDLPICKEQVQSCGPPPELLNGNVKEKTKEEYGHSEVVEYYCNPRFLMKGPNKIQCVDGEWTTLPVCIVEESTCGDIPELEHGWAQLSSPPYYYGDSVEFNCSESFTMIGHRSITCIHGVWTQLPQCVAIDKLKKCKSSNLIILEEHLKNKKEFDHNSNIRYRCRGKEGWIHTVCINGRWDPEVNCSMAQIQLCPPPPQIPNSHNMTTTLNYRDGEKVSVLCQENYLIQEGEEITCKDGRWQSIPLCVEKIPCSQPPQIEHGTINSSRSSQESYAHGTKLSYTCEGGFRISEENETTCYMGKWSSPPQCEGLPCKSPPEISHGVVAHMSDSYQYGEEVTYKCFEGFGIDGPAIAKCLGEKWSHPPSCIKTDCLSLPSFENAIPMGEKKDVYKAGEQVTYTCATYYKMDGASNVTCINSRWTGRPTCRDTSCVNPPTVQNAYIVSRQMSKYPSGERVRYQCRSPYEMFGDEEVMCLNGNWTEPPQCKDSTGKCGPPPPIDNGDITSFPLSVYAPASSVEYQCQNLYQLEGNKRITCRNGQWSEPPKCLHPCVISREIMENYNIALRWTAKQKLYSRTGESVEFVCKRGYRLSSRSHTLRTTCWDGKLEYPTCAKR

BibA-His (GBS3-His), recombinant entire form of BibA from S. agalactiae 2603 V/R with C-terminal His-tag
Kd [1]: 40 nM
BibA concentration at which binding reached a plateau [2]: 5 µg/mL

B1: BibA-Nt-His (GBS3-Nt-His), coiled-coil domain of BibA, aa 34-394 (other)
chain: MHADTSSGISASIPHKKQVNLGAVTLKNLISKYRGNDKAIAILLSRVNDFNRASQDTLPQLINSTEAEIRNILYQGQIGKQNKPSVTTHAKVSDQELGKQSRRSQDIIKSLGFLSSDQKDILVKSISSSKDSQLILKFVTQATQLNNAESTKAKQMAQNDVALIKNISPEVLEEYKEKIQRASTKSQVDEFVAEAKKVVNSNKETLVNQANGKKQEIAKLENLSNDEMLRYNTAIDNVVKQYNEGKLNITAAMNALNSIKQAAQEVAQKNLQKQYAKKIERISSKGLALSKKAKEIYEKHKSILPTPGYYADSVGTYLNRFRDKQTFGNRSVWTGQSGLDEAKKMLDEVKKLLKELQDLTRGLEHHHHHH
notes: His-tagged fragment expressed from pET21b(+); also called BibA N-terminal construct; N-terminal portion of BibA
binding result [3]: binds

B2: BibA-Ct-His (GBS3-Ct-His), proline-rich domain of BibA, aa 389-622 (other)
chain: MQDLTRGTKEDKKPDVKPEAKPEAKPDVKPEAKPDVKPEAKPDVKPEAKPDVKPEAKPDVKPEAKPDVKPKAKPDVKPEAKPDVKPDVKPDVKPEAKPEDKPDVKPDVKPEAKPDVKPEAKPEAKPEAKPEAKPEAKPEAKPDVKPEAKPDVKPEAKPEAKPEAKSEAKPEAKLEAKPEAKPATKKSVNTSGNLAAKKAIENKKYSKKLPSTGEAASPLLAIVSLIVMLSAGLITLEHHHHHH
notes: His-tagged fragment; also called BibA C-terminal construct; C-terminal portion of BibA
binding result [3]: no binding (tested: 5 µg/ml)

B3: BibA-His (GBS3-His), recombinant entire form of BibA from S. agalactiae 2603 V/R with C-terminal His-tag (other)
chain: MHADTSSGISASIPHKKQVNLGAVTLKNLISKYRGNDKAIAILLSRVNDFNRASQDTLPQLINSTEAEIRNILYQGQIGKQNKPSVTTHAKVSDQELGKQSRRSQDIIKSLGFLSSDQKDILVKSISSSKDSQLILKFVTQATQLNNAESTKAKQMAQNDVALIKNISPEVLEEYKEKIQRASTKSQVDEFVAEAKKVVNSNKETLVNQANGKKQEIAKLENLSNDEMLRYNTAIDNVVKQYNEGKLNITAAMNALNSIKQAAQEVAQKNLQKQYAKKIERISSKGLALSKKAKEIYEKHKSILPTPGYYADSVGTYLNRFRDKQTFGNRSVWTGQSGLDEAKKMLDEVKKLLKELQDLTRGTKEDKKPDVKPEAKPEAKPDVKPEAKPDVKPEAKPDVKPEAKPDVKPEAKPDVKPEAKPDVKPKAKPDVKPEAKPDVKPDVKPDVKPEAKPEDKPDVKPDVKPEAKPDVKPEAKPEAKPEAKPEAKPEAKPEAKPDVKPEAKPDVKPEAKPEAKPEAKSEAKPEAKLEAKPEAKPATKKSVNTSGNLAAKKAIENKKYSKKLPSTGEAASPLLAIVSLIVMLSAGLITLEHHHHHH
notes: His-tagged protein expressed from pET21b(+) in E. coli; also called recombinant BibA; BibA protein
binding result [4]: no binding
